Reference: patent US20210079037A1, “LIGHT-SWITCHABLE POLYPEPTIDE AND USES THEREOF” (TECHNISCHE UNIVERSITÄT MÜNCHEN, priority 2017, published 2021)
Numbered stars: 1 amine (or outer) side, 2 acyl side, 3 side chain; on linkers, the order of the positions; unused ones are H or OH. Square brackets hold non-standard residues; d marks the D form. Caf = 4′-carboxyphenylazophenylalanine, O=C([C@H](Cc1ccc(/N=N/c2ccc(C(=O)[*:3])cc2)cc1)N[*:1])[*:2]

Target: mouse anti-6×His antibody alkaline phosphatase (AP) conjugate (Arigo Biolaboratories)
Experiment: ELISA, curve fit; ProtL^Caf337-ABD in a dilution series on HSA-coated plate, Ig-AP conjugate at 1:1000; ground state (trans-Caf)

B1: ProtL^Caf337-ABD (designed binder)
chain: MKEEVTIKVNLI[Caf]ADGKTQTAEFKGTFEEATAKAYANADLSAKENGEYTADLEDGGNTINIKFAGGAVDANSLAEAKVLANRELDKYGVSDYYKNLINNAKTVEGVKALIDEILAALP
In the case of B1, the Kd is reported as 140 nM.
